This passage reports Ki results from patent US20210139548A1 (published 2021).

*1 amine or outer side, *2 acyl side, *3 side chain or, on linkers, in order; H or OH if unused. Side-chain parts run from the residue outwards. The star is where a group is joined. C18 diacid = O=C(O)CCCCCCCCCCCCCCCCC(=O)*; γGlu = O=C(O)[C@H](CCC(=O)[*:2])N[*:1]; Isovaleryl = CC(C)CC(=O)*; AEEA = NCCOCCOCC(=O)O

B1: Compound 109 (peptide)
peptide: Isovaleryl-APEK([AEEA-AEEA-γGlu-C18 diacid])PEEAASPEELQRYYVSLRHYYNWLTRQRY-NH2
SMILES: CC(C)CC(=O)N[C@@H](C)C(=O)N1CCC[C@H]1C(=O)N[C@@H](CCC(=O)O)C(=O)N[C@@H](CCCCNC(=O)COCCOCCNC(=O)COCCOCCNC(=O)CC[C@H](NC(=O)CCCCCCCCCCCCCCCCC(=O)O)C(=O)O)C(=O)N1CCC[C@H]1C(=O)N[C@@H](CCC(=O)O)C(=O)N[C@@H](CCC(=O)O)C(=O)N[C@@H](C)C(=O)N[C@@H](C)C(=O)N[C@@H](CO)C(=O)N1CCC[C@H]1C(=O)N[C@@H](CCC(=O)O)C(=O)N[C@@H](CCC(=O)O)C(=O)N[C@@H](CC(C)C)C(=O)N[C@@H](CCC(N)=O)C(=O)N[C@@H](CCCNC(=N)N)C(=O)N[C@@H](Cc1ccc(O)cc1)C(=O)N[C@@H](Cc1ccc(O)cc1)C(=O)N[C@H](C(=O)N[C@@H](CO)C(=O)N[C@@H](CC(C)C)C(=O)N[C@@H](CCCNC(=N)N)C(=O)N[C@@H](Cc1c[nH]cn1)C(=O)N[C@@H](Cc1ccc(O)cc1)C(=O)N[C@@H](Cc1ccc(O)cc1)C(=O)N[C@@H](CC(N)=O)C(=O)N[C@@H](Cc1c[nH]c2ccccc12)C(=O)N[C@@H](CC(C)C)C(=O)N[C@H](C(=O)N[C@@H](CCCNC(=N)N)C(=O)N[C@@H](CCC(N)=O)C(=O)N[C@@H](CCCNC(=N)N)C(=O)N[C@@H](Cc1ccc(O)cc1)C(N)=O)[C@@H](C)O)C(C)C
B2: Compound 115 (peptide)
peptide: Isovaleryl-APEK([AEEA-AEEA-γGlu-C18 diacid])PEEEASPEALQRYYVSLRHYYNWLTRQRY-NH2
SMILES: CC(C)CC(=O)N[C@@H](C)C(=O)N1CCC[C@H]1C(=O)N[C@@H](CCC(=O)O)C(=O)N[C@@H](CCCCNC(=O)COCCOCCNC(=O)COCCOCCNC(=O)CC[C@H](NC(=O)CCCCCCCCCCCCCCCCC(=O)O)C(=O)O)C(=O)N1CCC[C@H]1C(=O)N[C@@H](CCC(=O)O)C(=O)N[C@@H](CCC(=O)O)C(=O)N[C@@H](CCC(=O)O)C(=O)N[C@@H](C)C(=O)N[C@@H](CO)C(=O)N1CCC[C@H]1C(=O)N[C@@H](CCC(=O)O)C(=O)N[C@@H](C)C(=O)N[C@@H](CC(C)C)C(=O)N[C@@H](CCC(N)=O)C(=O)N[C@@H](CCCNC(=N)N)C(=O)N[C@@H](Cc1ccc(O)cc1)C(=O)N[C@@H](Cc1ccc(O)cc1)C(=O)N[C@H](C(=O)N[C@@H](CO)C(=O)N[C@@H](CC(C)C)C(=O)N[C@@H](CCCNC(=N)N)C(=O)N[C@@H](Cc1c[nH]cn1)C(=O)N[C@@H](Cc1ccc(O)cc1)C(=O)N[C@@H](Cc1ccc(O)cc1)C(=O)N[C@@H](CC(N)=O)C(=O)N[C@@H](Cc1c[nH]c2ccccc12)C(=O)N[C@@H](CC(C)C)C(=O)N[C@H](C(=O)N[C@@H](CCCNC(=N)N)C(=O)N[C@@H](CCC(N)=O)C(=O)N[C@@H](CCCNC(=N)N)C(=O)N[C@@H](Cc1ccc(O)cc1)C(N)=O)[C@@H](C)O)C(C)C
B3: Compound 110 (peptide)
peptide: Isovaleryl-APEK([AEEA-AEEA-γGlu-C18 diacid])PEEDAEPEEIQRYYVSLRHYYNWLTRQRY-NH2
SMILES: CC[C@H](C)[C@H](NC(=O)[C@H](CCC(=O)O)NC(=O)[C@H](CCC(=O)O)NC(=O)[C@@H]1CCCN1C(=O)[C@H](CCC(=O)O)NC(=O)[C@H](C)NC(=O)[C@H](CC(=O)O)NC(=O)[C@H](CCC(=O)O)NC(=O)[C@H](CCC(=O)O)NC(=O)[C@@H]1CCCN1C(=O)[C@H](CCCCNC(=O)COCCOCCNC(=O)COCCOCCNC(=O)CC[C@H](NC(=O)CCCCCCCCCCCCCCCCC(=O)O)C(=O)O)NC(=O)[C@H](CCC(=O)O)NC(=O)[C@@H]1CCCN1C(=O)[C@H](C)NC(=O)CC(C)C)C(=O)N[C@@H](CCC(N)=O)C(=O)N[C@@H](CCCNC(=N)N)C(=O)N[C@@H](Cc1ccc(O)cc1)C(=O)N[C@@H](Cc1ccc(O)cc1)C(=O)N[C@H](C(=O)N[C@@H](CO)C(=O)N[C@@H](CC(C)C)C(=O)N[C@@H](CCCNC(=N)N)C(=O)N[C@@H](Cc1c[nH]cn1)C(=O)N[C@@H](Cc1ccc(O)cc1)C(=O)N[C@@H](Cc1ccc(O)cc1)C(=O)N[C@@H](CC(N)=O)C(=O)N[C@@H](Cc1c[nH]c2ccccc12)C(=O)N[C@@H](CC(C)C)C(=O)N[C@H](C(=O)N[C@@H](CCCNC(=N)N)C(=O)N[C@@H](CCC(N)=O)C(=O)N[C@@H](CCCNC(=N)N)C(=O)N[C@@H](Cc1ccc(O)cc1)C(N)=O)[C@@H](C)O)C(C)C
B4: Compound 119 (peptide)
peptide: Isovaleryl-APEK([AEEA-AEEA-γGlu-C18 diacid])PEEEASPEELQRYYVTLRHYYNWLTRQRY-NH2
SMILES: CC(C)CC(=O)N[C@@H](C)C(=O)N1CCC[C@H]1C(=O)N[C@@H](CCC(=O)O)C(=O)N[C@@H](CCCCNC(=O)COCCOCCNC(=O)COCCOCCNC(=O)CC[C@H](NC(=O)CCCCCCCCCCCCCCCCC(=O)O)C(=O)O)C(=O)N1CCC[C@H]1C(=O)N[C@@H](CCC(=O)O)C(=O)N[C@@H](CCC(=O)O)C(=O)N[C@@H](CCC(=O)O)C(=O)N[C@@H](C)C(=O)N[C@@H](CO)C(=O)N1CCC[C@H]1C(=O)N[C@@H](CCC(=O)O)C(=O)N[C@@H](CCC(=O)O)C(=O)N[C@@H](CC(C)C)C(=O)N[C@@H](CCC(N)=O)C(=O)N[C@@H](CCCNC(=N)N)C(=O)N[C@@H](Cc1ccc(O)cc1)C(=O)N[C@@H](Cc1ccc(O)cc1)C(=O)N[C@H](C(=O)N[C@H](C(=O)N[C@@H](CC(C)C)C(=O)N[C@@H](CCCNC(=N)N)C(=O)N[C@@H](Cc1c[nH]cn1)C(=O)N[C@@H](Cc1ccc(O)cc1)C(=O)N[C@@H](Cc1ccc(O)cc1)C(=O)N[C@@H](CC(N)=O)C(=O)N[C@@H](Cc1c[nH]c2ccccc12)C(=O)N[C@@H](CC(C)C)C(=O)N[C@H](C(=O)N[C@@H](CCCNC(=N)N)C(=O)N[C@@H](CCC(N)=O)C(=O)N[C@@H](CCCNC(=N)N)C(=O)N[C@@H](Cc1ccc(O)cc1)C(N)=O)[C@@H](C)O)[C@@H](C)O)C(C)C
B5: Compound 111 (peptide)
peptide: Isovaleryl-APEK([AEEA-AEEA-γGlu-C18 diacid])PEEDAEPEELQRYYVELRHYYNWLTRQRY-NH2
SMILES: CC(C)CC(=O)N[C@@H](C)C(=O)N1CCC[C@H]1C(=O)N[C@@H](CCC(=O)O)C(=O)N[C@@H](CCCCNC(=O)COCCOCCNC(=O)COCCOCCNC(=O)CC[C@H](NC(=O)CCCCCCCCCCCCCCCCC(=O)O)C(=O)O)C(=O)N1CCC[C@H]1C(=O)N[C@@H](CCC(=O)O)C(=O)N[C@@H](CCC(=O)O)C(=O)N[C@@H](CC(=O)O)C(=O)N[C@@H](C)C(=O)N[C@@H](CCC(=O)O)C(=O)N1CCC[C@H]1C(=O)N[C@@H](CCC(=O)O)C(=O)N[C@@H](CCC(=O)O)C(=O)N[C@@H](CC(C)C)C(=O)N[C@@H](CCC(N)=O)C(=O)N[C@@H](CCCNC(=N)N)C(=O)N[C@@H](Cc1ccc(O)cc1)C(=O)N[C@@H](Cc1ccc(O)cc1)C(=O)N[C@H](C(=O)N[C@@H](CCC(=O)O)C(=O)N[C@@H](CC(C)C)C(=O)N[C@@H](CCCNC(=N)N)C(=O)N[C@@H](Cc1c[nH]cn1)C(=O)N[C@@H](Cc1ccc(O)cc1)C(=O)N[C@@H](Cc1ccc(O)cc1)C(=O)N[C@@H](CC(N)=O)C(=O)N[C@@H](Cc1c[nH]c2ccccc12)C(=O)N[C@@H](CC(C)C)C(=O)N[C@H](C(=O)N[C@@H](CCCNC(=N)N)C(=O)N[C@@H](CCC(N)=O)C(=O)N[C@@H](CCCNC(=N)N)C(=O)N[C@@H](Cc1ccc(O)cc1)C(N)=O)[C@@H](C)O)C(C)C
B6: Compound 121 (peptide)
peptide: Isovaleryl-APAK([AEEA-AEEA-γGlu-C18 diacid])PEADASPEELQRYYVSLRHYYNWLTRQRY-NH2
SMILES: CC(C)CC(=O)N[C@@H](C)C(=O)N1CCC[C@H]1C(=O)N[C@@H](C)C(=O)N[C@@H](CCCCNC(=O)COCCOCCNC(=O)COCCOCCNC(=O)CC[C@H](NC(=O)CCCCCCCCCCCCCCCCC(=O)O)C(=O)O)C(=O)N1CCC[C@H]1C(=O)N[C@@H](CCC(=O)O)C(=O)N[C@@H](C)C(=O)N[C@@H](CC(=O)O)C(=O)N[C@@H](C)C(=O)N[C@@H](CO)C(=O)N1CCC[C@H]1C(=O)N[C@@H](CCC(=O)O)C(=O)N[C@@H](CCC(=O)O)C(=O)N[C@@H](CC(C)C)C(=O)N[C@@H](CCC(N)=O)C(=O)N[C@@H](CCCNC(=N)N)C(=O)N[C@@H](Cc1ccc(O)cc1)C(=O)N[C@@H](Cc1ccc(O)cc1)C(=O)N[C@H](C(=O)N[C@@H](CO)C(=O)N[C@@H](CC(C)C)C(=O)N[C@@H](CCCNC(=N)N)C(=O)N[C@@H](Cc1c[nH]cn1)C(=O)N[C@@H](Cc1ccc(O)cc1)C(=O)N[C@@H](Cc1ccc(O)cc1)C(=O)N[C@@H](CC(N)=O)C(=O)N[C@@H](Cc1c[nH]c2ccccc12)C(=O)N[C@@H](CC(C)C)C(=O)N[C@H](C(=O)N[C@@H](CCCNC(=N)N)C(=O)N[C@@H](CCC(N)=O)C(=O)N[C@@H](CCCNC(=N)N)C(=O)N[C@@H](Cc1ccc(O)cc1)C(N)=O)[C@@H](C)O)C(C)C

This test concerns the target T1, human neuropeptide Y2 receptor (human, UniProt P49146 1-381).
T1 construct: whole, on cells; also called hNPY2 receptor; hNPY2-R
T1 sequence (looked up): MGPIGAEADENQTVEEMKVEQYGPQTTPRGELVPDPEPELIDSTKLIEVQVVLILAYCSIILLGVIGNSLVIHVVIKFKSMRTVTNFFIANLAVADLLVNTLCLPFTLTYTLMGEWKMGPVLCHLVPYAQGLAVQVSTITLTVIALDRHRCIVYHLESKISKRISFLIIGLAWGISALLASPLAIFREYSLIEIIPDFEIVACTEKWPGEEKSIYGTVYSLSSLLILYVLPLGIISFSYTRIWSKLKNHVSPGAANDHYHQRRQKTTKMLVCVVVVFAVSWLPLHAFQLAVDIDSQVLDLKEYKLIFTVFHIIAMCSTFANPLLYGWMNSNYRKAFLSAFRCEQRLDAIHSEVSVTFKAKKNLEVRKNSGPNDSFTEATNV
Description: radioligand competition (125I-PYY(1-36)), hNPY2R membranes. The method in brief:
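Commercial human Y2 receptor membranes (0.5 μg protein/well) were incubated with peptide for 2 h at room temperature in 50 mM HEPES, 5 mM MgCl₂, 1 mM CaCl₂, pH 7.4, with 0.2% ovalbumin. Bound radioligand was separated on PEI-soaked GF/C filters and counted by scintillation, and IC₅₀ came from nonlinear sigmoidal regression.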
Regarding B1, the Ki (in general, a dissociation constant, usually derived from enzyme kinetics or from competition with a known ligand) came out at 0.94 nM. Take B2: the Ki was 1.94 nM. To B3 belongs 0.77 nM; to B4, 3.32 nM; to B5, 5.43 nM. In the case of B6 it was 0.61 nM.
